Laboratory results published in US12310324B2, “Compositions and methods for minimizing nornicotine synthesis in tobacco” (North Carolina State University, priority 2010, dated 2025).
Marks after values point to notes of the source that are not given here.

Experiments:
CN1CCC[C@H]1c1cccnc1 = test: Nicotine demethylase assay, yeast microsomal membrane preparations incubated with [^14C]-nicotine, products resolved by thin layer chromatography; assay type: biochemical, Nicotiana tabacum; conditions: other: substrate saturation curve across a wide range of [^14C]-nicotine concentrations; microsomes from yeast strain W(R) expressing CYP82E10 cDNA
Text: (§1) To determine whether CYP82E10 functions as a nicotine demethylase gene, its cDNA was cloned into the yeast expression vector pYeDP60 and transformed into yeast strain W(R). Strain W(R) is a yeast cell line that was engineered to overexpress the yeast NADPH-dependent P450 reductase, an enzyme that serves as the direct electron donor to P450s; this system greatly enhances the detection of foreign P450 enzyme activities that are expressed in yeast (Pompon et al., 1995). Nicotine demethylase assays were conducted by incubating yeast microsomal membrane preparations with [^14C]-nicotine, and resolving the products by thin layer chromatography as described in Siminszky et al. (2005).

[1] = tested on: CYP82E10 nicotine demethylase; test: Nicotine demethylase assay, yeast microsomal membranes with [14C]-nicotine, CYP82E10 and variants; assay type: biochemical, tobacco
Text: as §1
The nucleotide and amino acid residues mutated in these plants are also highlighted in FIG. 1. Although no truncation mutations were observed among these individuals, in several cases, mutations were identified that altered an amino acid residue within a highly conserved region of the enzyme. To determine the effects of a particular mutation on CYP82E10 enzyme activity, site-directed mutagenesis was used to introduce the specific mutations corresponding to seven of the nine mutations shown in Table 2 into the CYP82E10 cDNA within the pYeDP60 yeast expression vector. Microsomal preparations from yeast strains expressing each of the seven CYP82E10 variants were assayed in vitro for nicotine demethylase activity using both non-saturating (2.45 μM) and saturating (50 μM) concentrations of [^14C]-nicotine.

[2] = tested on: CYP82E10 nicotine demethylase; assay type: cell-based, tobacco; conditions: cultures shaken overnight with 55 μM [14C]-nicotine, methanol extract, TLC
Experimental: Nicotine demethylase activities of wild type and 1041 mutant CYP82E10-expressing yeast cells was also assayed in vivo.

[3] = tested on: CYP82E10 nicotine demethylase; test: Nicotine demethylase assay, yeast microsomal membranes with [14C]-nicotine, CYP82E10 and variants; assay type: biochemical, tobacco; conditions: at the 25 μM substrate level
[4] = tested on: CYP82E5 nicotine demethylase; test: Nicotine demethylase activity of CYP82E5 variants (method not described); assay type: biochemical, tobacco
[5] = molecular target: CYP82E4 nicotine demethylase (Nicotiana tabacum, UniProt Q38Q87, V376M)
Chain of CYP82E4 nicotine demethylase (Nicotiana tabacum, UniProt Q38Q87, V376M) (Q38Q87 whole entry V376M): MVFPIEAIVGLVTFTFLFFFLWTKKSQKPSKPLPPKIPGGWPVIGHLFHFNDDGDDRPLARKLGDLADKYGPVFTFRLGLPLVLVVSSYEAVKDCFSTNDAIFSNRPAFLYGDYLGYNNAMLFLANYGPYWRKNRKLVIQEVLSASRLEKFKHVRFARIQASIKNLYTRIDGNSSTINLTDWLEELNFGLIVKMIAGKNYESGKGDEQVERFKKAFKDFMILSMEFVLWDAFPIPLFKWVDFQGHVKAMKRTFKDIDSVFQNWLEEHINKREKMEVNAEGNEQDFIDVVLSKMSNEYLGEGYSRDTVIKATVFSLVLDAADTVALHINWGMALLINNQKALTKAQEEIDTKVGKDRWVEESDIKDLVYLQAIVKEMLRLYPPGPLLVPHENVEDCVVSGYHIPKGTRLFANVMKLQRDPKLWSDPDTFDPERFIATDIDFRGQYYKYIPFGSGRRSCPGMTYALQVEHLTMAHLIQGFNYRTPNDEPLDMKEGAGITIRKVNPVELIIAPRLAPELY

[6] = tested on: CYP82E4v2 nicotine demethylase; assay type: biochemical, tobacco; conditions: counts per minute of [14C]-nornicotine/mg microsomal protein; ± SD of two technical replications
Text: as §1
The thin layer chromatographic data for the in vitro yeast expression assays corresponding to the plant 1041 mutation are shown in FIG. 3. This particular mutation was selected for more extensive investigation. To provide additional confirmation that the Pro to Ser substitution at amino acid position 381 that defines the plant 1041 mutation is incompatible with nicotine demethylation function, this same mutation was introduced into a CYP82E4v2 cDNA that had been similarly cloned into the pYeDP60 vector. […] Whether introduced into the CYP82E10 or CYP82E4v2 enzymes, a Ser substitution for Pro at position 381 leads to the complete ablation of nicotine demethylase activity in this assay.

[7] = tested on: CYP82E4 nicotine demethylase
[8] = counts per minute of [14C]-nornicotine/mg microsomal protein, ± SD of two technical replications

Nicotiana tabacum CYP82E10 nicotine demethylase, wild type, SEQ ID NO:2 (Nicotiana tabacum)
Km (CN1CCC[C@H]1c1cccnc1): 3.9 µM

B1: CYP82E10: wild type root-specific tobacco nicotine demethylase (cytochrome P450) expressed in yeast (protein, listed as Nicotiana tabacum)
chain: MVSPVEAIVGLVTLTLLFYFIRTKKSQKPSKPLPPKIPGGWPVIGHLFYFDDDSDDRPLARKLGDLADKYGPVFTFRLGLPLVLVVSSYEAIKDCFSTNDAIFSNRPAFLYGEYLGYNNAMLFLTKYGPYWRKNRKLVIQEVLCASRLEKLKHVRFGEIQTSIKNLYTRIDGNSSTINLTDWLEELNFGLIVKMIAGKNYESGKGDEQVERFRKAFKDFIILSMEFVLWDAFPIPLFKWVDFQGHVKAMKRTFKDIDSVFQNWLEEHVKKKEKMEVNAEGNEQDFIDVVLSKMSNEYLDEGYSRDTVIKATVFSLVLDAADTVALHMNWGMALLINNQHALKKAQEEIDKKVGKDRWVEESDIKDLVYLQTIVKEVLRLYPPGPLLVPHENVEDCVVSGYHIPKGTRLFANVMKLQRDPKLWSNPDKFDPERFFAADIDFRGQHYEFIPFGSGRRSCPGMTYAMQVEHLTIAHLIQGFNYKTPNDEPLDMKEGAGLTIRKVNPIEVVITPRLTPELY
CPM nornicotine at 2.45 μM [14C]-nicotine substrate [1, 8]: 2,296 ± 99 ^ CPM
CPM nornicotine at 50.0 μM [14C]-nicotine substrate [1, 8]: 15,253 ± 465 CPM
nicotine demethylase (enzyme) activity, result in words ([1]; yeast microsomes, [14C]-nicotine): very robust nicotine demethylase activity
nornicotine detected in extracts of yeast [2]: could be detected
rate of [14C]-nornicotine synthesis relative to preparations containing CYP82E4v2 [3]: nearly three times greater

B2: SEQ ID NO:33: CYP82E5 variant with stop codon for tryptophan at position 422 (protein, listed as Nicotiana tabacum)
chain: MVSPVEAIVGLVTLTLLFYFLWPKKFQIPSKPLPPKIPGGWPVIGHLFYFDDDGDDRPLARKLGDLADKYGPVFTFRLGLPLVLVVSSYEAVKDCFSTNDAIFSNRPAFLYGEYLGYSNAMLFLTKYGPYWRKNRKLVIQEVLSASRLEKLKHVRFGKIQTSIKSLYTRIDGNSSTINLTDWLEELNFGLIVKMIAGKNYESGKGDEQVERFRKAFKDFIILSMEFVLWDAFPIPLFKWVDFQGHVKAMKRTFKDIDSVFQNWLEEHVKKREKMEVNAQGNEQDFIDVVLSKMSNEYLDEGYSRDTVIKATVFSLVLDAADTVALHMNWGMALLINNQHALKKAQEEIDKKVGKERWVEESDIKDLVYLQAIVKEVLRLYPPGPLLVPHENVEDCVVSGYHIPKGTRLFANVMKLQRDPKL
modifications: CYP82E5 W422Stop Variant
inhibition of nicotine demethylase activity (knocked out) [4]: 100%

B3: CYP82E5 P449L: CYP82E5 variant with leucine for proline at position 449 (protein, listed as Nicotiana tabacum)
chain: MVSPVEAIVGLVTLTLLFYFLWPKKFQIPSKPLPPKIPGGWPVIGHLFYFDDDGDDRPLARKLGDLADKYGPVFTFRLGLPLVLVVSSYEAVKDCFSTNDAIFSNRPAFLYGEYLGYSNAMLFLTKYGPYWRKNRKLVIQEVLSASRLEKLKHVRFGKIQTSIKSLYTRIDGNSSTINLTDWLEELNFGLIVKMIAGKNYESGKGDEQVERFRKAFKDFIILSMEFVLWDAFPIPLFKWVDFQGHVKAMKRTFKDIDSVFQNWLEEHVKKREKMEVNAQGNEQDFIDVVLSKMSNEYLDEGYSRDTVIKATVFSLVLDAADTVALHMNWGMALLINNQHALKKAQEEIDKKVGKERWVEESDIKDLVYLQAIVKEVLRLYPPGPLLVPHENVEDCVVSGYHIPKGTRLFANVMKLQRDPKLWSNPDKFDPERFFADDIDYRGQHYEFILFGSGRRSCPGMTYALQAEHLTIAHLIQGFNYKTPNDEPLDMKEGAGLTIRKVNPVEVTITARLAPELY
modifications: CYP82E5 P449L
effect of mutation on nicotine demethylase activity, in words [4]: inhibition of its nicotine demethylase activity

B4: CYP82E4 V376M: CYP82E4 variant with methionine for valine at position 376 (protein, listed as Nicotiana tabacum)
chain: MLSPIEAIVGLVTFTFLFFFLWTKKSQKPSKPLPPKIPGGWPVIGHLFHFNDDGDDRPLARKLGDLADKYGPVFTFRLGLPLVLVVSSYEAVKDCFSTNDAIFSNRPAFLYGDYLGYNNAMLFLANYGPYWRKNRKLVIQEVLSASRLEKFKHVRFARIQASIKNLYTRIDGNSSTINLTDWLEELNFGLIVKMIAGKNYESGKGDEQVERFKKAFKDFMILSMEFVLWDAFPIPLFKWVDFQGHVKAMKRTFKDIDSVFQNWLEEHINKREKMEVNAEGNEQDFIDVVLSKMSNEYLGEGYSRDTVIKATVFSLVLDAADTVALHINWGMALLINNQKALTKAQEEIDTKVGKDRWVEESDIKDLVYLQAIVKEMLRLYPPGPLLVPHENVEDCVVSGYHIPKGTRLFANVMKLQRDPKLWSDPDTFDPERFIATDIDFRGQYYKYIPFGSGRRSCPGMTYALQVEHLTMAHLIQGFNYRTPNDEPLDMKEGAGITIRKVNPVELIIAPRLAPELY
modifications: CYP82E4 V376M Variant
nicotine demethylase activity relative to the wild-type CYP82E4 polypeptide [5]: about 50%

B5: pYeDP60-CYPE4v2/1041: CYP82E4v2 enzyme possessing the 1041 mutation (Pro381Ser) (protein, listed as Nicotiana tabacum)
chain: MLSPIEAIVGLVTFTFLFFFLWTKKSQKPSKPLPPKIPGGWPVIGHLFHFNDDGDDRPLARKLGDLADKYGPVFTFRLGLPLVLVVSSYEAVKDCFSTNDAIFSNRPAFLYGDYLGYNNAMLFLANYGPYWRKNRKLVIQEVLSASRLEKFKHVRFARIQASIKNLYTRIDGNSSTINLTDWLEELNFGLIVKMIAGKNYESGKGDEQVERFKKAFKDFMILSMEFVLWDAFPIPLFKWVDFQGHVKAMKRTFKDIDSVFQNWLEEHINKREKMEVNAEGNEQDFIDVVLSKMSNEYLGEGYSRDTVIKATVFSLVLDAADTVALHINWGMALLINNQKALTKAQEEIDTKVGKDRWVEESDIKDLVYLQAIVKEVLRLYPSGPLLVPHENVEDCVVSGYHIPKGTRLFANVMKLQRDPKLWSDPDTFDPERFIATDIDFRGQYYKYIPFGSGRRSCPGMTYALQVEHLTMAHLIQGFNYRTPNDEPLDMKEGAGITIRKVNPVELIIAPRLAPELY
modifications: CYP82E4 P382S Variant
CPM nornicotine at 2.45 μM [14C]-nicotine substrate [6]: Not detected
CPM nornicotine at 50.0 μM [14C]-nicotine substrate [6]: Not detected
inhibition of nicotine demethylase activity (knocked out) [7]: 100%

B6: CYP82E4 P458S: CYP82E4 variant with serine for proline at position 458 (protein, listed as Nicotiana tabacum)
chain: MLSPIEAIVGLVTFTFLFFFLWTKKSQKPSKPLPPKIPGGWPVIGHLFHFNDDGDDRPLARKLGDLADKYGPVFTFRLGLPLVLVVSSYEAVKDCFSTNDAIFSNRPAFLYGDYLGYNNAMLFLANYGPYWRKNRKLVIQEVLSASRLEKFKHVRFARIQASIKNLYTRIDGNSSTINLTDWLEELNFGLIVKMIAGKNYESGKGDEQVERFKKAFKDFMILSMEFVLWDAFPIPLFKWVDFQGHVKAMKRTFKDIDSVFQNWLEEHINKREKMEVNAEGNEQDFIDVVLSKMSNEYLGEGYSRDTVIKATVFSLVLDAADTVALHINWGMALLINNQKALTKAQEEIDTKVGKDRWVEESDIKDLVYLQAIVKEVLRLYPPGPLLVPHENVEDCVVSGYHIPKGTRLFANVMKLQRDPKLWSDPDTFDPERFIATDIDFRGQYYKYIPFGSGRRSCSGMTYALQVEHLTMAHLIQGFNYRTPNDEPLDMKEGAGITIRKVNPVELIIAPRLAPELY
modifications: CYP82E4 P458S Variant
inhibition of nicotine demethylase activity (knocked out) [7]: 100%

B7: pYeDP60-CYPE4v2: wild type senescence-induced tobacco nicotine demethylase CYP82E4v2 expressed in yeast (protein, listed as Nicotiana tabacum)
chain: MLSPIEAIVGLVTFTFLFFFLWTKKSQKPSKPLPPKIPGGWPVIGHLFHFNDDGDDRPLARKLGDLADKYGPVFTFRLGLPLVLVVSSYEAVKDCFSTNDAIFSNRPAFLYGDYLGYNNAMLFLANYGPYWRKNRKLVIQEVLSASRLEKFKHVRFARIQASIKNLYTRIDGNSSTINLTDWLEELNFGLIVKMIAGKNYESGKGDEQVERFKKAFKDFMILSMEFVLWDAFPIPLFKWVDFQGHVKAMKRTFKDIDSVFQNWLEEHINKREKMEVNAEGNEQDFIDVVLSKMSNEYLGEGYSRDTVIKATVFSLVLDAADTVALHINWGMALLINNQKALTKAQEEIDTKVGKDRWVEESDIKDLVYLQAIVKEVLRLYPPGPLLVPHENVEDCVVSGYHIPKGTRLFANVMKLQRDPKLWSDPDTFDPERFIATDIDFRGQYYKYIPFGSGRRSCPRMTYALQVEHLTMAHLIQGFNYRTPNDEPLDMKEGAGITIRKVNPVELIIAPRLAPELY
CPM nornicotine at 2.45 μM [14C]-nicotine substrate [6]: 1,813 ± 623^b CPM
CPM nornicotine at 50.0 μM [14C]-nicotine substrate [6]: 5,383 ± 505 CPM
